Patent publication US11248019B2, “Trityl-mono-GalNAc compounds and their use” (Hoffmann-La Roche Inc., priority 2016, dated 2022)

How the values were obtained:
Assay type in all cases: in vivo, C57BL6/J mice
ALT in serum (Example 7) = conditions: 0.1 mg/kg single iv dose
Protocol: (§1) Female C57BL6/J mice (5/group appr. 20 g at arrival) were injected intravenous (iv) with a single dose saline or 0.1 mg/kg of GalNAc conjugated LNA antisense oligonucleotide (Compound J, K, L, B or C of the invention or reference compound M). Blood samples of 50 μl were collected pre-dosing at day minus 6, and post dosing at day 3, 7, 10 and 14. The animals were sacrificed at day 7 or 14 and total serum was collected as well as liver and kidney.
ALT (Alanine aminotransferase) was measured using ABX Pentra ALT CP reagent (A11A01627 Triolab, Brondby, Denmark. The results are shown in table 17.

[1] = Oligonucleotide content in liver and kidney by ELISA (Example 7); conditions: 0.1 mg/kg single iv dose
Protocol: as §1
The oligonucleotide content in the liver and kidney was measured using ELISA (see for example Straarup et al 2010 Nucleic Acid Res Vol 38 pp 7100-7111), results are shown in Table 16.

ApoB mRNA [2] = assay: ApoB mRNA knockdown in liver and kidney by qPCR, single iv dose 0.1 mg/kg, day 7 or 14 (Example 7); conditions: 0.1 mg/kg single iv dose
Protocol: (§2) ApoB mRNA knockdown was analyzed by qPCR. In brief, RNA was isolated from homogenized liver and kidney using MagnaPure RNA Isolation and purification system (catalog #03604721001 and #05467535001; Roche) according to the manufacturer's instructions. RT-QPCR was done using Taqman Fast Universal PCR Master Mix 2×(Applied Biosystems Cat #4364103) and Taqman gene expression assay (mApoB, Mn01545150_m1 and mGAPDH #4352339E) following the manufacturers protocol.
as §1
ApoB mRNA knock down was measured as described in example 4.

ApoB mRNA [3] = assay: ApoB mRNA knockdown in liver and kidney by qPCR, single sc dose, sacrifice day 10 (Example 4); conditions: for ApoB mRNA expression as % of saline, mRNA kidney: day 10, kidney; for ApoB mRNA expression as % of saline, mRNA liver: day 10, liver
Protocol: (§3) Female C57BL6/J mice (5/group appr. 20 g at arrival) were injected subcutaneous (sc) with a single dose saline or 0.25 mg/kg unconjugated LNA-antisense oligonucleotide (compound F) or with 0.25 mg/kg or 0.1 mg/kg of GalNAc conjugated LNA antisense oligonucleotide (Compound C or E of the invention or reference compound G). Blood samples of 50 μl were collected pre-dosing at day minus 6, and post dosing at day 3 and 7. The animals were sacrificed at day 10 and total serum was collected as well as liver and kidney.
as §2

[4] = Oligonucleotide content in liver and kidney by ELISA (Example 4); conditions: for Oligonucleotide content, Kidney / Oligonucleotide content, Liver: day 10
Protocol: as §3
The oligonucleotide content in the liver and kidney was measured using ELISA (see for example Straarup et al 2010 Nucleic Acid Res Vol 38 pp 7100-7111), results are shown in Table 6.

| Substance | ALT levels (U/L) in serum as % of saline (ALT in serum (Example 7); Day 7) | ALT levels (U/L) in serum as % of saline (ALT in serum (Example 7); Day 14) | Oligonucleotide content, Avg kidney ([1]; Day 7, kidney tissue) [µg/g] | Oligonucleotide content, Avg liver ([1]; Day 7, liver tissue) [µg/g] | Oligonucleotide content, Avg kidney ([1]; Day 14, kidney tissue) [µg/g] | Oligonucleotide content, Avg liver ([1]; Day 14, liver tissue) [µg/g] | ApoB mRNA/mGAPDH expression as % of saline, Avg kidney (ApoB mRNA [2]; Day 7, kidney) | ApoB mRNA/mGAPDH expression as % of saline, Avg liver (ApoB mRNA [2]; Day 7, liver) | ApoB mRNA/mGAPDH expression as % of saline, Avg kidney (ApoB mRNA [2]; Day 14, kidney) | ApoB mRNA/mGAPDH expression as % of saline, Avg liver (ApoB mRNA [2]; Day 14, liver) | further results |
| --- | --- | --- | --- | --- | --- | --- | --- | --- | --- | --- | --- |
| 5′-cOaOGS^mCSaStStSgSgStSaStSTS^mCSA-3′ [B] | 177.3 % of saline | 108.5 % of saline | 0.353 | 0.161 | 0.152 | 0.066 | 62.5 % of saline | 49.2 % of saline | 100.3 % of saline | 112.8 % of saline | – |
| 5′-cOaOGS^mCSaStStSgSgStSaStSTS^mCSA-3′ [Compound C] | 136.7 % of saline | 111.3 % of saline | 0.307 | 0.493 | 0.118 | 0.209 | 93.8 % of saline | 63.2 % of saline | 74.4 % of saline | 116.3 % of saline | ApoB mRNA expression as % of saline, mRNA kidney (ApoB mRNA [3]; 0.1 mg/kg single sc dose): 72.4 % of saline; ApoB mRNA expression as % of saline, mRNA liver (ApoB mRNA [3]; 0.1 mg/kg single sc dose): 69.6 % of saline; ApoB mRNA expression as % of saline, mRNA kidney (ApoB mRNA [3]; 0.25 mg/kg single sc dose): 56.1 % of saline; ApoB mRNA expression as % of saline, mRNA liver (ApoB mRNA [3]; 0.25 mg/kg single sc dose): 24.0 % of saline; knock down of ApoB mRNA compared to the GalNAc2 cluster conjugated LNA oligonucleotide (compound G) (ApoB mRNA [3]; in words, high dose (0.25 mg/kg)): better knockdown; knock down of ApoB mRNA in the liver compared to unconjugated (naked) oligonucleotide (compound F) (ApoB mRNA [3]; in words, single sc dose, day 10): improved knock down; Oligonucleotide content, Kidney ([4]; 0.1 mg/kg single sc dose): 0.080 μg/g tissue; Oligonucleotide content, Liver ([4]; 0.1 mg/kg single sc dose): 0.028 μg/g tissue; Oligonucleotide content, Kidney ([4]; 0.25 mg/kg single sc dose): 0.080 μg/g tissue; Oligonucleotide content, Liver ([4]; 0.25 mg/kg single sc dose): 0.028 μg/g tissue; uptake in liver and kidney compared to the unconjugated oligonucleotide (compound F) ([4]; in words): enhanced uptake in the liver and reduced uptake in the kidney; liver/kidney distribution ratio compared to GalNAc2 conjugated LNA oligonucleotide (compound G) ([4]; in words, high dose): improved liver/kidney distribution ratio |
| 5′-cOaOGS^mCSaStStSgSgStSaStSTS^mCSA-3′ [K] | 170.3 % of saline | 77.3 % of saline | 0.275 | 0.401 | 0.129 | 0.173 | 80.2 % of saline | 48.7 % of saline | 86.2 % of saline | 112.4 % of saline | – |
